Assay results: patent US20160115200A1 (published 2016)
Square brackets hold non-standard residues; d marks the D form. Ends that are not written are not given here.

These binders were tested against T1, His-JNK1 (ref 14-327, Upstate) (UniProt P45983 1-384) (assay: kinase inhibition).
T1 sequence (P45983 other isoform, or with tags, fused parts or gaps): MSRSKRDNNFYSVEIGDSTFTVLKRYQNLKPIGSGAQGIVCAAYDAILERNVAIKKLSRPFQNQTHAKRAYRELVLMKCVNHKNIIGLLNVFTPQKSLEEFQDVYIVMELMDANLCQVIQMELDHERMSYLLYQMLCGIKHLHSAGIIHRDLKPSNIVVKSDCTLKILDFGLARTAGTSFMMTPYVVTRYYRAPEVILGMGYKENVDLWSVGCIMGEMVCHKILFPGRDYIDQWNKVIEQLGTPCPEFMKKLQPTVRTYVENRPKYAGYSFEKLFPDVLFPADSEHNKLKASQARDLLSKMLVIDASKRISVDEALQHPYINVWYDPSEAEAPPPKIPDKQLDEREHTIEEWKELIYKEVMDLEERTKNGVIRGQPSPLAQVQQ
Work on [dR]KKR[dR]QR[dR]RPTDL[dR]L[dW] [SEQ ID NO: 181] yielded an IC50 of 294 nM.
[dR]KKR[dR]QRR[dR]RP[dK]RP[dQ]TLNL[dF] [SEQ ID NO: 186] was tested, and the IC50 was 1020 nM.
[dR]KKR[dR]QRR[dR]RP[dK]RP[dS]TLNL[dF] [SEQ ID NO: 185] was tested, and the IC50 was 766 nM.
Binder [dR]KKR[dR]QR[dR]RP[dA]TLNL[dF] [SEQ ID NO: 183] has an IC50 of 2590 nM.
RKKRRQRRRRPKRPATLNLF [SEQ ID NO: 172] gave an IC50 of 722 nM.
[dR]KKR[dR]QRR[dR]RPTTLNL[dF] [SEQ ID NO: 174] showed an IC50 of 334 nM.
[dR]KKR[dR]QRR[dR]RP[dA]TLNL[dF] [SEQ ID NO: 182] gave an IC50 of 1680 nM.
GRKKRRQRRRPTTLNLFPQVPRSQD [SEQ ID NO: 195] showed an IC50 of 10.8 nM.
[dR]KKR[dR]QRR[dR]RKAL[dR]L[dF] [SEQ ID NO: 190] was tested, and the IC50 was 8970 nM.
[dR]KKR[dR]QR[dR]RPTTL[dR]L[dW] [SEQ ID NO: 179] was tested, and the IC50 was 249 nM.
Binder [dR]KKR[dR]QRR[dR]RP[dK]RPTTLNL[dW] [SEQ ID NO: 176] has an IC50 of 131 nM.
For [dR]KKR[dR]QRR[dR]RP[dK]RPTTL[dR]L[dF] [SEQ ID NO: 173], the IC50 was 88.4 nM.
GRKKRRQRRRPPKRPTTLNLFPQVPRSQD [SEQ ID NO: 194] showed an IC50 of 14 nM.
[dR]KKR[dR]QRR[dR]RP[dK]RPTDLNL[dF] [SEQ ID NO: 177] showed an IC50 of 355 nM.
With [dR]KKR[dR]QR[dR]RPTTLNL[dF] [SEQ ID NO: 175] the IC50 was 185 nM.
Work on [dR]KKR[dR]QRR[dR]RPTTL[dR]L[dW] [SEQ ID NO: 178] yielded an IC50 of 329 nM.
Binder [dR]KKR[dR]QRR[dR]GKRKALKL[dF] [SEQ ID NO: 188] has an IC50 of 1420 nM.
[dR]KKR[dR]QR[dR]KRP[dA]TLNL[dF] [SEQ ID NO: 184] showed an IC50 of 2430 nM.
[dR]KKR[dR]QRR[dR]GKRKAL[dR]L[dF] [SEQ ID NO: 189] gave an IC50 of 22300 nM.
[dR]KKR[dR]QRR[dR]RP[dK]RP[dK]TLNL[dF] [SEQ ID NO: 187] gave an IC50 of 594 nM.
Binder [dR]KKR[dR]QRR[dR]RPTDL[dR]L[dW] [SEQ ID NO: 180] has an IC50 of 265 nM.

These binders were tested against T2, His-JNK3 (ref 14-501, Upstate) (UniProt P53779 1-422) (assay: kinase inhibition).
T2 sequence (P53779 other isoform, or with tags, fused parts or gaps): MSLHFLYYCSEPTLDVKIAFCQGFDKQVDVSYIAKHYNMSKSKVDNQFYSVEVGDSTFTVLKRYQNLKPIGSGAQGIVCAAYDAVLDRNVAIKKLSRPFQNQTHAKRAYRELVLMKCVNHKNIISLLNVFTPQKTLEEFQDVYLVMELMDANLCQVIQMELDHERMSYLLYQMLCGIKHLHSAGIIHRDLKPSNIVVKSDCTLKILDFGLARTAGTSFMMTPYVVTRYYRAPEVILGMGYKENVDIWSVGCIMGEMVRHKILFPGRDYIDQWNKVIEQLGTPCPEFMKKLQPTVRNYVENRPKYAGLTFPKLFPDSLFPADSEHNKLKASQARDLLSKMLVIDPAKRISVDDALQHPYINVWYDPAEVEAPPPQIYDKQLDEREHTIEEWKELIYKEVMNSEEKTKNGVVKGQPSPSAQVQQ
Work on [dR]KKR[dR]QR[dR]RPTDL[dR]L[dW] [SEQ ID NO: 181] yielded an IC50 of 47.6 nM.
[dR]KKR[dR]QRR[dR]RP[dK]RP[dQ]TLNL[dF] [SEQ ID NO: 186] showed an IC50 of 44.2 nM.
Binder [dR]KKR[dR]QRR[dR]RP[dK]RP[dS]TLNL[dF] [SEQ ID NO: 185] has an IC50 of 35.5 nM.
[dR]KKR[dR]QR[dR]RP[dA]TLNL[dF] [SEQ ID NO: 183] was tested, and the IC50 was 199 nM.
RKKRRQRRRRPKRPATLNLF [SEQ ID NO: 172] showed an IC50 of 102 nM.
Binder RKKRRQRRR [SEQ ID NO: 46] has an IC50 of 8130 nM.
[dR]KKR[dR]QRR[dR]RPTTLNL[dF] [SEQ ID NO: 174] gave an IC50 of 63.1 nM.
In the case of [dR]KKR[dR]QRR[dR]RP[dA]TLNL[dF] [SEQ ID NO: 182], the IC50 is reported as 59.4 nM.
GRKKRRQRRRPTTLNLFPQVPRSQD [SEQ ID NO: 195] gave an IC50 of 4.92 nM.
[dR]KKR[dR]QRR[dR]RKAL[dR]L[dF] [SEQ ID NO: 190] gave an IC50 of 159 nM.
For [dR]KKR[dR]QR[dR]RPTTL[dR]L[dW] [SEQ ID NO: 179], the IC50 was 45.7 nM.
With [dR]KKR[dR]QRR[dR]RP[dK]RPTTLNL[dW] [SEQ ID NO: 176] the IC50 was 22.4 nM.
[dR]KKR[dR]QRR[dR]RP[dK]RPTTL[dR]L[dF] [SEQ ID NO: 173] showed an IC50 of 16.8 nM.
Binder GRKKRRQRRRPPKRPTTLNLFPQVPRSQD [SEQ ID NO: 194] has an IC50 of 2.59 nM.
Binder [dR]KKR[dR]QRR[dR]RP[dK]RPTDLNL[dF] [SEQ ID NO: 177] has an IC50 of 45.4 nM.
Work on [dR]KKR[dR]QR[dR]RPTTLNL[dF] [SEQ ID NO: 175] yielded an IC50 of 60.6 nM.
[dR]KKR[dR]QRR[dR]RPTTL[dR]L[dW] [SEQ ID NO: 178] was tested, and the IC50 was 30.4 nM.
In the case of [dR]KKR[dR]QRR[dR]GKRKALKL[dF] [SEQ ID NO: 188], the IC50 is reported as 36.1 nM.
Binder [dR]KKR[dR]QRR[dR]RP[dK]AA[dA]AANA[dF] [SEQ ID NO: 200] has an IC50 of 3820 nM.
Binder [dR]KKR[dR]QR[dR]KRP[dA]TLNL[dF] [SEQ ID NO: 184] has an IC50 of 129 nM.
Work on [dR]KKR[dR]QRR[dR]GKRKAL[dR]L[dF] [SEQ ID NO: 189] yielded an IC50 of 128 nM.
For [dR]KKR[dR]QRR[dR]RP[dK]RP[dK]TLNL[dF] [SEQ ID NO: 187], the IC50 was 25.4 nM.
Work on [dR]KKR[dR]QRR[dR]RPTDL[dR]L[dW] [SEQ ID NO: 180] yielded an IC50 of 47 nM.

Each binder was assayed against T1, His-JNK1 (ref 14-327, Upstate) (assay: JNK inhibition assay).
With RPKRPTTL[dR]LF [SEQ ID NO: 6] the IC50 was 90.5 nM.

Each binder was assayed against T2, His-JNK3 (ref 14-501, Upstate) (assay: JNK inhibition assay).
RPKRPTTL[dR]LF [SEQ ID NO: 6] gave an IC50 of 120 nM.
